Assay results: PMC6030132, “Tailoring recombinant lipases: keeping the His-tag favors esterification reactions, removing it favors hydrolysis reactions” (Scientific Reports, 2018)

Experiments:
[1] = tested on: T1, CCCCCCCCCC(=O)Oc1ccc([N+](=O)[O-])cc1; experiment: purified protein; assay type: biochemical, uncultured bacterium; settings: apparent constant, free enzyme, 50 mM Tris-HCl pH 7.5, 1 mM CaCl2, 0.6% Triton X-100, 4% isopropanol, 1% acetonitrile, 25 °C, 95% confidence interval in parentheses
T1 construct: full-length lipC12 product (293 residues) from pTEV5lipC12, E. coli BL21(DE3)

[2] = tested on: T2, CCCCCCCCCC(=O)Oc1ccc([N+](=O)[O-])cc1; experiment: purified protein; assay type: biochemical, uncultured bacterium; settings: apparent constant, free enzyme, 50 mM Tris-HCl pH 7.5, 1 mM CaCl2, 0.6% Triton X-100, 4% isopropanol, 1% acetonitrile, 25 °C, 95% confidence interval in parentheses
T2 construct: full-length lipC12 product (293 residues) from pTEV5lipC12, E. coli BL21(DE3); His-tag cut off with TEV protease, GASH left at N-terminus

Substance	Km [1]	kcat [1]	kcat/Km [1]	Km [2]	kcat [2]	kcat/Km [2]
HisTEVS-LipC12 (uncultured bacterium)	1.77 (1.56–2.02) mM	2.53 s⁻¹	1430 M⁻¹ s⁻¹			
cLipC12 (uncultured bacterium)				1.33 (1.17–1.51) mM	2.52 s⁻¹	1900 M⁻¹ s⁻¹
